# Measured values taken from publication PMC12350170 (2025).
# T1: MBP-PHAX103–196 (wild type) (human, UniProt Q9H814 103-196)
# T1 chain: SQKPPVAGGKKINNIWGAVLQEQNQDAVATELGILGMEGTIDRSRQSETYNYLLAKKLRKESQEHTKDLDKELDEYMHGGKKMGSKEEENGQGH
# B1: Human nuclear cap-binding complex (CBC): CBP80ΔNLS with CBP20 (complex)
# chain 1: KTSDANETEDHLESLICKVGEKSACSLESNLEGLAGVLEADLPNYKSKILRLLCTVARLLPEKLTIYTTLVGLLNARNYNFGGEFVEAMIRQLKESLKANNYNEAVYLVRFLSDLVNCHVIAAPSMVAMFENFVSVTQEEDVPQVRRDWYVYAFLSSLPWVGKELYEKKDAEMDRIFANTESYLKRRQKTHVPMLQVWTADKPHPQEEYLDCLWAQIQKLKKDRWQERHILRPYLAFDSILCEALQHNLPPFTPPPHTEDSVYPMPRVIFRMFDYTDDPEGPVMPGSHSVERFVIEENLHCIIKSHWKERKTCAAQLVSYPGKNKIPLNYHIVEVIFAELFQLPAPPHIDVMYTTLLIELCKLQPGSLPQVLAQATEMLYMRLDTMNTTCVDRFINWFSHHLSNFQFRWSWEDWSDCLSQDPESPKPKFVREVLEKCMRLSYHQRILDIVPPTFSALCPANPTCIYKYGDESSNSLPGHSVALCLAVAFKSKATNDEIFSILKDVPNPNQDDDDDEGFSFNPLKIEVFVQTLLHLAAKSFSHSFSALAKFHEVFKTLAESDEGKLHVLRVMFEVWRNHPQMIAVLVDKMIRTQIVDCAAVANWIFSSELSRDFTRLFVWEILHSTIRKMNKHVLKIQKELEEAKEKLARQHKRRSDDDDRSSDRKDGVLEEQIERLQEKVESAQSEQKNLFLVIFQRFIMILTEHLVRCETDGTSVLTPWYKNCIERLQQIFLQHHQIIQQYMVTLENLLFTAELDPHILAVFQQFCALQA
# chain 2: MSGGLLKALRSDSYVELSQYRDQHFRGDNEEQEKLLKKSCTLYVGNLSFYTTEEQIYELFSKSGDIKKIIMGLDKMKKTACGFCFVEYYSRADAENAMRYINGTRLDDRIIRTDWDAGFKEGRQYGRGRSGGQVRDEYRQDYDAGRGGYGKLAQNQ
# Columns and labels:
# [1] = molecular target: T1, MBP-PHAX103–196 (wild type); assay: ITC
# [2] = molecular target: T1, MBP-PHAX103–196 (wild type); assay: ITC; CBC bound to m7GpppG
# [3] = molecular target: MBP-PHAX103–196 R147E, Y152E, Y154E (human, UniProt Q9H814 103-196, R147E | Y152E | Y154E); assay: ITC; CBC bound to m7GpppG
binder,measurement,setting,value
B1,Kd,[1],1860 nM
same,Kd,[2],1450 nM
same,Kd,[3],1970 nM
